Assay [1] deals with T1, CD3 on human donor PBMC / Pan T effector cells (human, UniProt P07766 23-207; P09693 23-182; P04234 22-171; P20963 22-164). Kind of assay: cell-based or functional assay.
For assay [2], the target named is T1, CD3 on human donor PBMC / Pan T …. Kind of assay: cell-based or functional assay. The source holds these as a separate data set.

T1 sequence (P07766 23-207, chain 1 of 4): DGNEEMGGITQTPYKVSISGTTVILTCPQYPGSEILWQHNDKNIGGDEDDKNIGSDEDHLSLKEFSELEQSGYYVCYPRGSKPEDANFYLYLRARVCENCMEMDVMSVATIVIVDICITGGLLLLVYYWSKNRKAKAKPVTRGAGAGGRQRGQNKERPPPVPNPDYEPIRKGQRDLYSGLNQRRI
T1 sequence (P09693 23-182, chain 2 of 4): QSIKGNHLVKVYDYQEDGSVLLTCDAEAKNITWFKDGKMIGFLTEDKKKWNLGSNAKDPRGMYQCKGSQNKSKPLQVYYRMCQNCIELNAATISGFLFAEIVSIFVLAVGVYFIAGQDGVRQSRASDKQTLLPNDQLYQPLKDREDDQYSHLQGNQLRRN
T1 sequence (P04234 22-171, chain 3 of 4): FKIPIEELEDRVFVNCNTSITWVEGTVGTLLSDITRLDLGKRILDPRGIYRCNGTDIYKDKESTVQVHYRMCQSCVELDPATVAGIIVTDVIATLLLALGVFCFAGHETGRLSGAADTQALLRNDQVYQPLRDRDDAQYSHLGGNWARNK
T1 sequence (P20963 22-164, chain 4 of 4): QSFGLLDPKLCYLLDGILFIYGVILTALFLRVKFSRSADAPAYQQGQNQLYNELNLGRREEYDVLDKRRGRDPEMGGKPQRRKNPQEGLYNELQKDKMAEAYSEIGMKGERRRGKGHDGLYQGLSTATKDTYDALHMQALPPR

B1: CD3 × CD33-BspAb51 (bispecific antibody)
chain 1: not shown
chain 2: EVQLVQSGAEVKKPGSSVKVSCKASGYTITDSNIHWVRQAPGQSLEWIGYIYPYNGGTDYNQKFKNRATLTVDNPTNTAYMELSSLRSEDTAFYYCVNGNPWLAYWGQGTLVTVSSASTKGPSVFPLAPSSKSTSGGTAALGCLVKDYFPEPVTVSWNSGALTSGVHTFPAVLQSSGLYSLSSVVTVPSSSLGTQTYICNVNHKPSNTKVDKRVEPKSCDKTHTCPPCPAPEFEGGPSVFLFPPKPKDTLMISRTPEVTCVVVDVSHEDPEVKFNWYVDGVEVHNAKTKPREEQYNSTYRVVSVLTVLHQDWLNGKEYKCKVSNKALPASIEKTISKAKGQPREPQVCTLPPSREEMTKNQVSLSCAVKGFYPSDIAVEWESNGQPENNYKTTPPVLDSDGSFFLVSKLTVDKSRWQQGNVFSCSVMHEALHNRFTQKSLSLSPGK
chain 3: DIQLTQSPSTLSASVGDRVTITCRASESLDNYGIRFLTWFQQKPGKAPKLLMYAASNQGSGVPSRFSGSGSGTEFTLTISSLQPDDFATYYCQQTKEVPWSFGQGTKVEVKRTVAAPSVFIFPPSDEQLKSGTASVVCLLNNFYPREAKVQWKVDNALQSGNSQESVTEQDSKDSTYSLSSTLTLSKADYEKHKVYACEVTHQGLSSPVTKSFNRGEC
In the case of B1, in assay [1], the “Cytokine Release Assay (TNFα) Donor 0 EC50” value was 0.203 nM, the “Cytokine Release Assay (TNFα) Donor 0 gMFI max” value came to 51700 gMFI, the “Cytokine Release Assay (TNFα) Donor 1 EC50” value turned out to be 0.535 nM and the “Cytokine Release Assay (TNFα) Donor 1 gMFI max” value came out at 6200 gMFI. For the same molecule, in assay [1], the “Cytokine Release Assay (TNFα) Donor 2 EC50” value is 0.18 nM, the “Cytokine Release Assay (TNFα) Donor 2 gMFI max” value was determined as 14800 gMFI, the “Cytokine Release Assay (TNFα) Donor 3 EC50” value worked out at 0.166 nM and the “Cytokine Release Assay (TNFα) Donor 3 gMFI max” value amounted to 36200 gMFI. In assay [2], the “Cytokine Release Assay (IL2) Donor 0 EC50” value worked out at 0.181 nM, the “Cytokine Release Assay (IL2) Donor 0 gMFI max” value is 105000 gMFI, the “Cytokine Release Assay (IL2) Donor 1 EC50” value worked out at 0.529 nM and the “Cytokine Release Assay (IL2) Donor 1 gMFI max” value turned out to be 37800 gMFI. In assay [2], the “Cytokine Release Assay (IL2) Donor 2 EC50” value amounted to 0.205 nM, the “Cytokine Release Assay (IL2) Donor 2 gMFI max” value is 27300 gMFI, the “Cytokine Release Assay (IL2) Donor 3 EC50” value was found to be 0.0995 nM and the “Cytokine Release Assay (IL2) Donor 3 gMFI max” value turned out to be 156000 gMFI.

B2: CD3 × CD33-BspAb52 (bispecific antibody)
chain 1: not shown
chain 2: EVQLVQSGAEVKKPGSSVKVSCKASGYTITDSNIHWVRQAPGQSLEWIGYIYPYNGGTDYNQKFKNRATLTVDNPTNTAYMELSSLRSEDTAFYYCVNGNPWLAYWGQGTLVTVSSASTKGPSVFPLAPSSKSTSGGTAALGCLVKDYFPEPVTVSWNSGALTSGVHTFPAVLQSSGLYSLSSVVTVPSSSLGTQTYICNVNHKPSNTKVDKRVEPKSCDKTHTCPPCPAPEFEGGPSVFLFPPKPKDTLMISRTPEVTCVVVDVSHEDPEVKFNWYVDGVEVHNAKTKPREEQYNSTYRVVSVLTVLHQDWLNGKEYKCKVSNKALPASIEKTISKAKGQPREPQVCTLPPSREEMTKNQVSLSCAVKGFYPSDIAVEWESNGQPENNYKTTPPVLDSDGSFFLVSKLTVDKSRWQQGNVFSCSVMHEALHNRFTQKSLSLSPGK
chain 3: DIQLTQSPSTLSASVGDRVTITCRASESLDNYGIRFLTWFQQKPGKAPKLLMYAASNQGSGVPSRFSGSGSGTEFTLTISSLQPDDFATYYCQQTKEVPWSFGQGTKVEVKRTVAAPSVFIFPPSDEQLKSGTASVVCLLNNFYPREAKVQWKVDNALQSGNSQESVTEQDSKDSTYSLSSTLTLSKADYEKHKVYACEVTHQGLSSPVTKSFNRGEC
For the molecule B2, in assay [1], the “Cytokine Release Assay (TNFα) Donor 0 gMFI max” value was determined as 5510 gMFI, the “Cytokine Release Assay (TNFα) Donor 1 gMFI max” value came out at 4510 gMFI, the “Cytokine Release Assay (TNFα) Donor 2 EC50” value was 1.35 nM and the “Cytokine Release Assay (TNFα) Donor 2 gMFI max” value is 4800 gMFI. In addition, in assay [1], the “Cytokine Release Assay (TNFα) Donor 3 EC50” value worked out at 18.6 nM and the “Cytokine Release Assay (TNFα) Donor 3 gMFI max” value amounted to 5310 gMFI. In addition, in assay [2], the “Cytokine Release Assay (IL2) Donor 0 EC50” value amounted to 141 nM, the “Cytokine Release Assay (IL2) Donor 0 gMFI max” value worked out at 17200 gMFI, the “Cytokine Release Assay (IL2) Donor 1 EC50” value came out at 10.7 nM and the “Cytokine Release Assay (IL2) Donor 1 gMFI max” value is 14500 gMFI. In addition, in assay [2], the “Cytokine Release Assay (IL2) Donor 2 gMFI max” value came out at 12800 gMFI, the “Cytokine Release Assay (IL2) Donor 3 EC50” value was determined as 3.87 nM and the “Cytokine Release Assay (IL2) Donor 3 gMFI max” value is 18100 gMFI.

B3: CD3 × CD33-BspAb66 (bispecific antibody, human IgG1, kappa)
chain: EVQLVESGGGLVQPGRSLRLSCAASGFTFDDYAMHWVRQAPGKGLEWVSGISWNSGSIGYADSVKGRFTISRDNAKNSLYLQMNSLRAEDTALYYCAKDSRGYGDYRLGGAYWGQGTLVTVSSGGGGSGGGGSGGGGSGGGGSEIVMTQSPATLSVSPGERATLSCRASQSVSSNLAWYQQKPGQAPRLLIYGASTRATGIPARFSGSGSGTEFTLTISSLQSEDFAVYYCQQYNNWPWTFGQGTKVEIKTSGPGGPDKTHTCPPCPAPEFEGGPSVFLFPPKPKDTLMISRTPEVTCVVVDVSHEDPEVKFNWYVDGVEVHNAKTKPREEQYNSTYRVVSVLTVLHQDWLNGKEYKCKVSNKALPASIEKTISKAKGQPREPQVYTLPPCREEMTKNQVSLWCLVKGFYPSDIAVEWESNGQPENNYKTTPPVLDSDGSFFLYSKLTVDKSRWQQGNVFSCSVMHEALHNHYTQKSLSLSPGK
heavy: EVQLVQSGAEVKKPGSSVKVSCKASGYTITDSNIHWVRQAPGQSLEWIGYIYPYNGGTDYNQKFKNRATLTVDNPTNTAYMELSSLRSEDTAFYYCVNGNPWLAYWGQGTLVTVSSASTKGPSVFPLAPSSKSTSGGTAALGCLVKDYFPEPVTVSWNSGALTSGVHTFPAVLQSSGLYSLSSVVTVPSSSLGTQTYICNVNHKPSNTKVDKRVEPKSCDKTHTCPPCPAPEFEGGPSVFLFPPKPKDTLMISRTPEVTCVVVDVSHEDPEVKFNWYVDGVEVHNAKTKPREEQYNSTYRVVSVLTVLHQDWLNGKEYKCKVSNKALPASIEKTISKAKGQPREPQVCTLPPSREEMTKNQVSLSCAVKGFYPSDIAVEWESNGQPENNYKTTPPVLDSDGSFFLVSKLTVDKSRWQQGNVFSCSVMHEALHNRFTQKSLSLSPGK
light: DIQLTQSPSTLSASVGDRVTITCRASESLDNYGIRFLTWFQQKPGKAPKLLMYAASNQGSGVPSRFSGSGSGTEFTLTISSLQPDDFATYYCQQTKEVPWSFGQGTKVEVKRTVAAPSVFIFPPSDEQLKSGTASVVCLLNNFYPREAKVQWKVDNALQSGNSQESVTEQDSKDSTYSLSSTLTLSKADYEKHKVYACEVTHQGLSSPVTKSFNRGEC
Turning to B3, in assay [1], the “Cytokine Release Assay (TNFα) Donor 0 EC50” value amounted to 20.1 nM, the “Cytokine Release Assay (TNFα) Donor 0 gMFI max” value was determined as 55800 gMFI, the “Cytokine Release Assay (TNFα) Donor 1 gMFI max” value came to 5360 gMFI and the “Cytokine Release Assay (TNFα) Donor 2 EC50” value was 28.1 nM. Moreover, in assay [1], the “Cytokine Release Assay (TNFα) Donor 2 gMFI max” value came out at 14000 gMFI, the “Cytokine Release Assay (TNFα) Donor 3 EC50” value came to 10.8 nM and the “Cytokine Release Assay (TNFα) Donor 3 gMFI max” value worked out at 28600 gMFI. For the same molecule, in assay [2], the “Cytokine Release Assay (IL2) Donor 0 EC50” value came to 44.9 nM, the “Cytokine Release Assay (IL2) Donor 0 gMFI max” value worked out at 84700 gMFI, the “Cytokine Release Assay (IL2) Donor 1 EC50” value was determined as 40.1 nM and the “Cytokine Release Assay (IL2) Donor 1 gMFI max” value turned out to be 31100 gMFI. In assay [2], the “Cytokine Release Assay (IL2) Donor 2 EC50” value was determined as 38.7 nM, the “Cytokine Release Assay (IL2) Donor 2 gMFI max” value worked out at 33700 gMFI, the “Cytokine Release Assay (IL2) Donor 3 EC50” value came to 49.8 nM and the “Cytokine Release Assay (IL2) Donor 3 gMFI max” value was found to be 95000 gMFI.
